Data: patent US20060292565A1

Target: stimulatory G-protein, Gs

[35S]GTPγS binding in the presence of 10 µM isoproterenol: 770000 dpm/mg
Substance: Gly-389 beta-1 adrenergic receptor
